Results taken from patent US20130036481A1.

Target: α2β1 integrin on human cortical neurons (human) (UniProt P17301)
Experiment: cell-based or functional assay

| Substance | EC50 of LG3 inhibition of Aβ40 toxicity in human cortical neurons (alamarBlue viability) | EC50 of domain V inhibition of Aβ toxicity in human cortical neurons, domain V alone (FIG. 4) | EC50 of domain V inhibition of Aβ toxicity in human cortical neurons, in the presence of a mouse IgG control or the α2 antibodies 1950 and 1998 | EC50 of domain V inhibition of Aβ toxicity in human cortical neurons, in the presence of the αV integrin antibody | EC50 of domain V inhibition of Aβ toxicity in human cortical neurons, in the presence of the β1 integrin antibody | average EC50 of domain V inhibition of Aβ40 toxicity in human cortical neurons (alamarBlue viability, n=5 experiments) |
| --- | --- | --- | --- | --- | --- | --- |
| LG3 C-terminal domain of human perlecan Domain V (amino acids 4188-4391), C-terminal 6xHis tag (from UniProt P98160 4188-4391) (ligand) | 50 nM | – | – | – | – | – |
| Human perlecan Domain V, recombinant, C-terminal 6xHis tag (from UniProt P98160 3687-4391) (ligand) | – | 123 nM | 98 nM | 47 nM | < 38 nM | 164 nM |
